The data set concerns the molecule itself. As to the kind of experiment: cross-linking; BS3 cross-linker added to 19.4 uM MARCH5 in 50 mM Hepes pH 7.7, 100 mM NaCl, 5% glycerol, 0.1 mM TCEP, 0.001% LMNG; without lipid (control) and with cardiolipin at 1:10 molar ratio of protein to lipid; samples at 0, 15, 30 and 60 min; SDS-PAGE.

The text below walks through data of article PMC9034062, “Phospholipids alter activity and stability of mitochondrial membrane-bound ubiquitin ligase MARCH5” (Life Science Alliance, 2022).

B1: MARCH5 (enzyme, human, UniProt Q9NX47 1-278, looked up)
chain: MPDQALQQMLDRSCWVCFATDEDDRTAEWVRPCRCRGSTKWVHQACLQRWVDEKQRGNSTARVACPQCNAEYLIVFPKLGPVVYVLDLADRLISKACPFAAAGIMVGSIYWTAVTYGAVTVMQVVGHKEGLDVMERADPLFLLIGLPTIPVMLILGKMIRWEDYVLRLWRKYSNKLQILNSIFPGIGCPVPRIPAEANPLADHVSATRILCGALVFPTIATIVGKLMFSSVNSNLQRTILGGIAFVAIKGAFKVYFKQQQYLRQAHRKILNYPEQEEA
notes: human MARCH5, cDNA codon-optimised for yeast (GenScript); Integral membrane protein, kept in the detergent LMNG; By the printed primers the TEV site is ENLYFQ/SQF, so ENLYFQ probably stays at the C-terminus after cleavage (surmised); also called M5; source: S. cerevisiae PAP1500, purified (DDM solubilisation, Ni resin with exchange to LMNG, TEV cleavage, reverse IMAC); not shown: yEGFP, …
Turning to B1, the binding result is given as “binds”.
